± gives the uncertainty stated by the source.
assay: amyloid nucleation score (Sup35N fusion, yeast selection) (log enrichment); library NNK3; higher = more nucleation; inactive = no reads after selection
In short: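 Yeast lacking psi expressed peptides of 20 random codons fused to Sup35N, received 100 μM copper sulfate for 24 hours, and were then grown for 7 days at 30°C on medium lacking adenine and uracil. Illumina sequencing of input and output plasmid inserts provided the reads. Nucleation scores are DiMSum log enrichments of output over input, centred on the mode of non-aggregating sequences. Any sequence with under 100 input reads was excluded.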

Row | Substance | amyloid nucleation score
1 | SCSCESCYKGVAEYDLVKDV | 1.32 ± 0.16
2 | PGRGLMRLYCYRFEIKTTEP | 0.82 ± 0.23
3 | SCFISSMYFASWKFRISNGV | inactive
4 | FGGVGAW | inactive
5 | GVLCMFGSTWRMFMEVGLHV | inactive
6 | LKWCFFCCN | 2.54 ± 0.065
7 | WLWISMVYCHLKDIRIIVGN | inactive
8 | GMYGMSGMV | inactive
9 | TCLWFLFIKRSSRDSEIWS | 0.209 ± 0.53
10 | KCCEQRAIIPFVGRTRSHAT | inactive
11 | SRCFWQSLEVTVILGSCINT | 1.64 ± 0.11
12 | GYPFSRLSSVV | inactive
13 | RFGYKLFRSSVYGRGESYDY | inactive
14 | RDHMSS | inactive
15 | LRFNVDAMFSTSVVRIQKCL | inactive
16 | VLLFC | inactive
17 | FCTPI | inactive
18 | LVSTEKWEYLGQCARRELRF | -0.884 ± 2.4
19 | DCARFILIT | inactive
20 | DYVPIKFYRYYEILNVCRVV | inactive
21 | KVCSVVLLGLFSYMYRGYVM | inactive
22 | LRSSYQNLDPSVCQQFHLGE | -0.075 ± 0.66
23 | YIFVT | inactive
24 | DISSILVNTWLFDWKLNP | inactive

Row | Substance | amyloid nucleation score
25 | MVHAVPHMVDGGS | inactive
26 | SIIVTVQLWYVGV | 0.422 ± 0.36
27 | LDRSVIIVSLILS | 1.87 ± 0.072
28 | AQTYSMCFNITKHPYNSMCG | inactive
29 | RQYWCFYQSWNSLG | inactive
30 | YSGGLWWYWPSECNNAKYVL | inactive
31 | VPGMSAVCKMGLLLDVGVHE | inactive
32 | HGFSMTFRLLTFFHGKNYCM | inactive
33 | HGHSQFL | inactive
34 | LVMINCCHVFRKARSTAERQ | 2.44 ± 0.071
35 | LSLFVGGAEGWVKGDPASEG | 0.507 ± 0.25
36 | VCSFCCFGTVRSL | 2.1 ± 0.058
37 | VERHFAVDERP | -0.682 ± 2.5
38 | SDEFGDHEGCMLAFRASAVW | inactive
39 | LFKLSMQLCNT | 1.71 ± 0.076
40 | LVYAKNMLFDNKDWCV | inactive
41 | YYWDKLFCMYKTAHGVSIYV | inactive
42 | CIYNVKALIQRVWIMIEVTS | 0.707 ± 0.13
43 | YLTVWFTKKLCVLFLFNIWK | inactive
44 | HYRFNNACLDRGHSEGYWRI | inactive
45 | IYRVYYDSTLGMCPAWGFYK | inactive
46 | SPVMPMMFGNKRVPLITDLR | inactive
47 | FLVTYKISWRYKSQQLCSYY | inactive
48 | FLWLYQDCVV | inactive

Row | Substance | amyloid nucleation score
49 | SRWVIGHVNTGSGGLESDKR | inactive
50 | FVIVYAMCKLYLMEKMRLIS | inactive
51 | TKSMVKNLHALPSIKRGVFV | inactive
52 | TGILRNFSCFSFWFWVIRIT | 1.46 ± 0.097
53 | HPIANVV | inactive
54 | PFFCTMITYNGLVYDIFWRG | inactive
55 | ILVCESV | inactive
56 | HYNSSSFRVGPCVSLGNHTQ | inactive
57 | TWTMDSSLWMLWAVQVVEGR | inactive
58 | QPDFLSWVDACVNKVVYWVK | -0.421 ± 0.98
59 | DGFIWAQGLTLIFMRSNMKR | 2.42 ± 0.055
60 | SDRAHGQFFRPGERLPSNPW | -0.069 ± 0.52
61 | VDRYLCNFSGGTLYGSLSQD | inactive
62 | DRQLDDGGTRNKFIKCLVAR | inactive
63 | NVYTYIRPRRVYK | inactive
64 | WVYNGIIYGRLFMDLLWTGL | inactive
65 | FRNWIWVLYEV | inactive
66 | LDYAFCILNNNCREC | 3.05 ± 0.057
67 | IMCYLSITRWKDM | inactive
68 | CSLVSYSSLLGTCVDGIRDR | inactive
69 | IMKFDSRAYNGYMQMIRPGV | inactive
70 | AVLEMQLTIW | inactive
71 | ICAVFWDCMISRSCDTALYS | inactive
72 | LHHFSAIPH | inactive

Row | Substance | amyloid nucleation score
73 | ALASGVVVKLDICIVNNRMY | 3.11 ± 0.073
74 | LSHAG | inactive
75 | QCSIFIIC | 2.41 ± 0.076
76 | SSNNQMWTELITYCLRCAWV | inactive
77 | VILNCR | inactive
78 | CTKWGGVSVISCQLAVSAKI | inactive
79 | SLMYKWKEGSQDGYCWAW | 0.824 ± 0.28
80 | IWVWVWSYWGRNFLSLVRFV | inactive
81 | SGDPGGHQSRR | inactive
82 | REKLDQP | inactive
83 | GWNLTHRMSTGSKLLCPLRI | inactive
84 | LFGEGKFKYWMSVKKFGSGI | inactive
85 | CSLQWFMV | inactive
86 | VRMSRYSEWQDFNIPIEVIV | 0.776 ± 0.16
87 | FFNVELLMIDCGFYEFHTDD | 2.1 ± 0.056
88 | SQGGFRNMWR | inactive
89 | CWVIVAYTI | inactive
90 | GWWVRHSWGDGSVASVCIKM | inactive
91 | VVMVLRVLLWWFRTSIMSRK | 0.467 ± 0.19
92 | EVAWVYEYQL | inactive
93 | TGVVMCLGIEMINDYIPVLN | inactive
94 | YSSVILVY | 0.156 ± 0.48
95 | YFLSDLQRKGSGLETVRVCR | inactive
96 | YNDGVCIILFNLPFVCRRST | 2.85 ± 0.05

Row | Substance | amyloid nucleation score
97 | GRVESSVIYRPLNLGGGQES | inactive
98 | YWSIFTLVVPMRFAFIWS | inactive
99 | NVVSWVNHACGWRDRSATMS | inactive
100 | YKFEHVIFWNSFLNIKVEFS | 1.56 ± 0.068
101 | RKYTKCSFRKKSWCPSPFEL | inactive
102 | GQFML | inactive
103 | FNSAHDQAAQVRHLHVNVFL | 3 ± 0.064
104 | YWDVNQGVYGINYGTVSHS | 0.256 ± 0.43
105 | EVPTRLDKMNENCNREDSAP | inactive
106 | CTSGLVVGLVFLMI | -0.716 ± 1.4
107 | PLGERRTPSYPVASLP | -0.223 ± 0.88
108 | VFLVTSRVNIRCVVLHIINE | 1.08 ± 0.11
109 | GCFVNN | inactive
110 | GNYRLSLHVVL | 1.21 ± 0.18
111 | GISWILSVGGCTSRAWLWSW | inactive
112 | LMIEGLSDIHVLMAVSPERG | inactive
113 | KFSCINVDPMHYSNSWTT | inactive
114 | VYWRTVFNLRLVLKSYGAMR | inactive
115 | PYGKFRLNPLD | 0.652 ± 0.17
116 | LEMTSCTNLLHKRELVSWHR | inactive
117 | AFPTVLLHWRN | inactive
118 | GVTLTTLDSLSDFGWLIE | inactive
119 | SSYLMFDMLMRYYLNYFMCR | inactive
120 | MRPVT | inactive

Row | Substance | amyloid nucleation score
121 | SIFAVSGLSVF | inactive
122 | LSGKTMVFFPKSNMRNNTRS | inactive
123 | RYMHGYCILET | inactive
124 | SSLIFLFDGKHRVLIYNLSN | 0.482 ± 0.47
125 | ESVRGRLFRV | inactive
126 | FDRSSGKRMVL | 0.466 ± 0.21
127 | GKLFWFCFRWRYLLTKMVQN | -0.702 ± 1.3
128 | PIAFQRKSSCIKSRESGSVR | inactive
129 | PELCQCSHCNLLFLWTYYIA | -0.052 ± 0.98
130 | AKICLFV | inactive
131 | LARRNTLVEGHDD | inactive
132 | FGVSNRMWRKSRNLSGSPRA | inactive
133 | DLWIYIVLYVVAHVALYKDG | inactive
134 | IARSREI | inactive
135 | LMPCALFSGVYEAGRHGSFL | 0.462 ± 0.34
136 | GFPPCSTRTIQLTWHSSNV | 0.37 ± 0.17
137 | MLTFLVYSCGTGWVCPLLRK | inactive
138 | YSSECALWNCRACVLYIHYR | 1.27 ± 0.16
139 | AILLWNCLHSSVSLLKKAYS | -0.518 ± 1.4
140 | PGKKL | -0.453 ± 1.4
141 | NSRNMVNGHLH | inactive
142 | NRISMFLNRT | inactive
143 | SNCFPLSFWIR | -0.88 ± 1.3
144 | GRCVEVCLIWLTKGDQQCSY | inactive

Row | Substance | amyloid nucleation score
145 | SYSGIYILSSFAATSSFILS | 0.46 ± 0.2
146 | HFQMRAERDESSNRPYSSFG | inactive
147 | CRAVND | inactive
148 | SMKGNSWF | inactive
149 | LRMVTHMSVYDRNHLSW | inactive
150 | RYWWNYWLLPRWFFVQLGSC | inactive
151 | INTNAYSGLEIYRYSTIAKG | inactive
152 | MLFSIICNFGNKFLTYKEFT | 0.89 ± 0.24
153 | SFHLQVLPRSGVLACISTGF | inactive
154 | SFYLVYRGIFDISLTEFVL | inactive
155 | SLESWFVTRRCSRYESTFMS | inactive
156 | GMDKRNNYMSIIDWRVPHSI | inactive
157 | NRWIRLLNAISWGYLRMLMV | inactive
158 | CIFMRIYGVC | inactive
159 | VDIGYQMQGFLGICSDY | inactive
160 | RNIRYLTLYQVTYLGRRRT | 2.25 ± 0.093
161 | YYTGFTIFLLRVWLLAGVGS | inactive
162 | VMRALL | inactive
